Results on 5 molecules are retold here after patent US20230051266A1 (ABL BIO, published 2023).

A word on the Kd: it is a measure of binding affinity in units of concentration. For orientation: koff means the first-order rate constant of dissociation. Broadly, the kon is the second-order rate constant of association. In general, EC50 (read off the curve) refers to the concentration that produces a half-maximal response. A low value points to a more potent agent.

Positions count from the first letter of the chain named. Names may count otherwise.

The target in test [1] is T1, Recombinant Human 4-1BB protein (human, UniProt Q07011 24-186).
T1 construct: also called h4-1BB; 4-1BB antigen
In words: phage ELISA on 4-1BB antigen-coated plates.

Test [2] has as its target T2, Recombinant Human BCMA (human, UniProt Q02223 1-54).
T2 construct: also called hBCMA; recombinant BCMA
T2 sequence: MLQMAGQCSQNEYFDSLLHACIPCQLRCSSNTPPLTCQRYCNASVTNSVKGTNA
As to the kind of experiment: SPR, bispecific antibody on Protein A chip, antigen flowed. As for the experimental part:
In the SPR experiment, the anti-BCMA/anti-4-1BB bispecific antibodies obtained in Example 3-5 were individually captured on flow-cells 2, 3 and 4, keeping the flow-cell 1 as reference, on a Protein A Chip on which an anti-BCMA/anti-4-1BB Bispecific antibody (5D5M4(NA)×41B01 M12 or 5A6M6(NA)×41B01 M12) had been immobilized by amine coupling. Recombinant Human BCMA or Human 4-1BB protein was flowed across the chip at concentration range from 100 nM to 6.25 nM for human BCMA or 250 nM to 15.625 nM for human 4-1BB and 0.78 nM at […] for 300 seconds, followed by a dissociation phase of 400 seconds. Regeneration was performed with 10 mM Glycine-HCl (pH 2.0).
Background: Surface plasmon resonance follows binding to a sensor surface in real time, without labels.

Test [3] deals with human 4-1BB on GloResponse NFkB-luc2/4-1BB Jurkat cells (human, UniProt Q07011 24-255). As to the kind of experiment: cell-based or functional assay.
Another test concerns the target T3, human BCMA-Fc protein (human, UniProt Q02223 1-54).
T3 construct: Coated antigen of the DACE
T3 sequence: T2 sequence
As to the kind of experiment: DACE (dual antigen captured ELISA): plate coated with human BCMA-Fc, bispecific antibody titrated, then human 4-1BB-His; Abs at 450 nm. In general terms: In an ELISA, binding on a coated surface is turned into a signal by an enzyme label.

In test [4] the target is T2, Recombinant Human BCMA. In words: single clone phage ELISA on coated recombinant BCMA. As for the experimental part:
Specifically, the phage pool obtained according to Example 1-2 was sequentially diluted, and cultured on a solid medium containing LB-tetracycline/cabenicillin to obtain single colonies. Each colony was cultured on a 96-deep well plate so that OD600 was from 0.5 to 0.7. 20 MOI of helper phage was added to each well, and reacted at 37° C. for 1 hour. Thereafter, kanamycin was added to each well and incubated overnight at 30° C. On the next day, the culture was centrifuged and the supernatant thereof was collected, and then, ELISA was performed to select BCMA-specific phages. Each well of the ELISA plate was coated with 100 ng of recombinant BCMA, and then incubated with PBS-B (3% BSA containing PBS) to prevent nonspecific binding. Thereafter, the plate was washed with PBS. The prepared single clone phage was added to each well and incubated at 37° C. for 1 hour, and the plate was washed three times with PBS-T. For detecting the bounded phages, horseradish peroxidase (HRP) conjugated anti-hemagglutinin (HA) antibody was added to each well. After washing step with PBS-T, tetramethylbenzidine (TMB, Sigma, T0440) was added. Clones, which are with an absorbance that is 0.5 or more at the wavelength of 450 nm and also the absorbance is at least 5 times greater than that of the control with anti-HA HRP alone, were selected. Four antibody clones (B58, 5B5, 5D5, and 5A6), which specifically bind to human BCMA, were selected.

human 4-1BB on GloResponse NFkB-luc2/4-1BB Jurkat cells, sequence (Q07011 24-255): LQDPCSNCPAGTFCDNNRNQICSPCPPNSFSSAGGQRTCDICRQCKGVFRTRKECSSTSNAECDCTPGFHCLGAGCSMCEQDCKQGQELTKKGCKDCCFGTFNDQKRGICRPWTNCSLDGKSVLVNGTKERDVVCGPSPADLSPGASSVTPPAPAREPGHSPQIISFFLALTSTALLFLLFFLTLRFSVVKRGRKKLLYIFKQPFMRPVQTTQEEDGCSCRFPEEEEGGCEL

B1: AB41 (phage antibody clone) (other)
VH: QVQLQQSGAEVIKPGASVKLSCKASGYTFSSYWMHWVRQAPGQGLEWIGEINPGNGHTNYNEKFKSRATLTGDTSTSTVYMELSSLRSEDTAVYYCARSFTTARAFAYWGQGTLVTVSS
VL: DIVMTQSPAFLSVTPGEKVTITCRASQTISDYLHWYQQKPDQAPKLLIKYASQSISGIPSRFSGSGSGTDFTFTISSLEAEDAATYYCQDGHSFPPTFGQGTKLEIK
notes: Clone as selected by phage ELISA
As to B1, in test [1], the binding result is on record as “binds”.

B2: 5A6M6(NA)x41B01 M12 (bispecific antibody, human IgG1, lambda, N297A)
heavy: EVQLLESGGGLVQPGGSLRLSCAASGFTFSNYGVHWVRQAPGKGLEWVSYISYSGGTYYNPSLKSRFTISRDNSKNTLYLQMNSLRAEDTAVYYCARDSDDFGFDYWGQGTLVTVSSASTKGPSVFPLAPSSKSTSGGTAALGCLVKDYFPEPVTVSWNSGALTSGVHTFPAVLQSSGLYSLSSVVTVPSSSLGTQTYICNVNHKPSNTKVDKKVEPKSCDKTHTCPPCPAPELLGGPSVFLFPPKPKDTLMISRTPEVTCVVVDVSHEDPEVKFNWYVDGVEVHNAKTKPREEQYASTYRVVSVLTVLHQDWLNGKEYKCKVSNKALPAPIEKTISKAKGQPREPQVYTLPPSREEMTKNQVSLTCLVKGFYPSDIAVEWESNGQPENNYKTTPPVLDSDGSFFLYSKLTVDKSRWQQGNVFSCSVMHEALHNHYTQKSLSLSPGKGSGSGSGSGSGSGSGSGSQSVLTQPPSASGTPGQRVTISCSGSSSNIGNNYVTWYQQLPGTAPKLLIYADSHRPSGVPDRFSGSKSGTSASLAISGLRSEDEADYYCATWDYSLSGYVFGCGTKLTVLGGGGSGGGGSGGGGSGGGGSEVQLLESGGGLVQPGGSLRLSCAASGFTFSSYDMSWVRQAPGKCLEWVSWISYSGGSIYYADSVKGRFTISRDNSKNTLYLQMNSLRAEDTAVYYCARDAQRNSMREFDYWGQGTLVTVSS
light: QSVLTQPPSASGTPGQRVTISCQGESLRSYYVNWYQQLPGTAPKLLIYDHSKRPTGVPDRFSGSKSGTSASLAISGLRSEDEADYYCQSYDASTVVFGGGTKLTVLGQPKAAPSVTLFPPSSEELQANKATLVCLISDFYPGAVTVAWKADSSPVKAGVETTTPSKQSNNKYAASSYLSLTPEQWKSHRSYSCQVTHEGSTVEKTVAPAECS
notes: IgG1 N297A-(GS)9-scFv
Take B2: in the test with Recombinant Human BCMA [2], the Kd turned out to be 22.6 nM, the koff is 0.0119 s⁻¹ and the kon stood at 527000 M⁻¹ s⁻¹. In test [3], the “In vitro 4-1BB activation (reporter bioassay) with H929 cells, EC50” value was 0.165 nM and the “In vitro 4-1BB activation (reporter bioassay) with MM1S cells, EC50” value was 1.98 nM. For the same molecule, in the test with human BCMA-Fc protein, the “EC50 (read off the curve)” value was about 0.3 nM.

B3: 5B5 (phage antibody clone) (scFv, V domains shown)
VH: EVQLLESGGGLVQPGGSLRLSCAASGFTFSGHYWSWVRQAPGKGLEWVSTVSGSGGDTFYADSVKGRFTISRDNSKNTLYLQMNSLRAEDTAVYYCARGHSVMDVWGQGTLVTVSS
VL: EIVLTQSPGTLSLSPGERATLSCRASQGIDSYVAWYQQKPGQAPRLLIYDASLRATGIPDRFSGSGSGTDFTLTISRLEPEDFAVYYCQQYNSWPITFGQGTKLEIK
In the case of B3, the binding result with Recombinant Human BCMA [4] was “binds”.

B4: 5D5 (phage antibody clone) (scFv, V domains shown)
VH: EVQLLESGGGLVQPGGSLRLSCAASGFTFSDYGLSWVRQAPGKGLEWVSLIDSSGSSTFYADSVKGRFTISRDNSKNTLYLQMNSLRAEDTAVYYCAKEHGLFDSWGQGTLVTVSS
VL: B3 VL with R24K, G28D, S31D, Y32D, V33I, A34N, Y91S, N92L, S93R, W94T
On to B4, for which the binding result with Recombinant Human BCMA [4] is “binds”.

B5: 5A6 (phage antibody clone) (scFv, V domains shown)
VH: EVQLLESGGGLVQPGGSLRLSCAASGFTFSNYGVHWVRQAPGKGLEWVSYISYSGGTYYNPSLKSRFTISRDNSKNTLYLQMNSLRAEDTAVYYCARDSDDFGFDYWGQGTLVTVSS
VL: QSVLTQPPSASGTPGQRVTISCQGDSLRSYYVNWYQQLPGTAPKLLIYDHSKRPTGVPDRFSGSKSGTSASLAISGLRSEDEADYYCQSYDSSTVVFGGGTKLTVL
Turning to B5, in the test with Recombinant Human BCMA [4], the binding result is “binds”.
